Data reported in PMC7272049 (PLoS ONE, 2020).

B1: mB7-1 mIgG2a (Fc fusion, mouse, UniProt Q00609 38-246, looked up)
chain: VDEQLSKSVKDKVLLPCRYNSPHEDESEDRIYWQKHDKVVLSVIAGKLKVWPEYKNRTLYDNTTYSLIILGLVLSDRGTYSCVVQKKERGTYEVKHLALVKLSIKADFSTPNITESGNPSADTKRITCFASGGFPKPRFSWLENGRELPGINTTISQDPESELYTISSQLDFNTTRNHTIKCLIKYGDAHVSEDFTWEKPPEDPPDSKN
notes: mouse B7-1 (CD80); also called mB7-1 Ig-fusion; B7-1 Fc; source: small-scale purified recombinant protein

Experiments:
[1] = biological target: T1, mPD-L1 S142A mCherry (mouse, UniProt Q9EP73 19-290, S142A); experiment: flow cytometry on cells; HEK 293 cells expressing PD-L1 mCherry (WT or mutant) queried with protein A microbeads saturated with a 4:1 mixture of PD-1 or B7-1 Fc-fusion and FITC-Fc; no wash; normalised to wild type; conditions: one partner purified
T1 construct: mouse PD-L1; source: HEK 293, transfected, on cells; not shown: mCherry, C-terminal, kept

[2] = biological target: T2, mPD-L1 E163A mCherry (mouse, UniProt Q9EP73 19-290, E163A); experiment: as above; conditions: one partner purified
T2 construct: mouse PD-L1; source: HEK 293, transfected, on cells; not shown: mCherry, C-terminal, kept

[3] = biological target: T3, mPD-L1 E163R mCherry (mouse, UniProt Q9EP73 19-290, E163R); experiment: as above; conditions: one partner purified
T3 construct: mouse PD-L1; source: HEK 293, transfected, on cells; not shown: mCherry, C-terminal, kept

[4] = biological target: T4, mPD-L1 M188A mCherry (mouse, UniProt Q9EP73 19-290, M188A); experiment: as above; conditions: one partner purified
T4 construct: mouse PD-L1; source: HEK 293, transfected, on cells; not shown: mCherry, C-terminal, kept

[5] = biological target: T5, mPD-L1 Q214A mCherry (mouse, UniProt Q9EP73 19-290, Q214A); experiment: as above; conditions: one partner purified
T5 construct: mouse PD-L1; source: HEK 293, transfected, on cells; not shown: mCherry, C-terminal, kept

[6] = biological target: B1; experiment: bead-based flow cytometry competition; protein A beads saturated with mB7-1 mIgG2a; 20 nM mPD-L1 hIgG1 or mCD28 hIgG1 with increasing mIgG2a-fused competitor; anti-human Alexa 488; conditions: both partners purified

T3 sequence (Q9EP73 19-290 E163R): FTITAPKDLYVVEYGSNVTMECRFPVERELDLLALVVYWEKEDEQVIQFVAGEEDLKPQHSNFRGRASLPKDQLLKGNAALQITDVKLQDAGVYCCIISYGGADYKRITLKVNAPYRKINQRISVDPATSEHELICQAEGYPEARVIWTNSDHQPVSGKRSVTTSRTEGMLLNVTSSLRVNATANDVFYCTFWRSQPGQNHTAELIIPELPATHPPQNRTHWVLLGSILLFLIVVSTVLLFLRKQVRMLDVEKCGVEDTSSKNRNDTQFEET
T4 sequence (Q9EP73 19-290 M188A): as the sequence (Q9EP73 19-290 E163R) above, with R145E, M170A counted along it
T1 sequence (Q9EP73 19-290 S142A): as the sequence (Q9EP73 19-290 E163R) above, with S124A, R145E counted along it
T5 sequence (Q9EP73 19-290 Q214A): as the sequence (Q9EP73 19-290 E163R) above, with R145E, Q196A counted along it
T2 sequence (Q9EP73 19-290 E163A): as the sequence (Q9EP73 19-290 E163R) above, with R145A counted along it

Row | percent of wild-type binding [1] [%] | percent of wild-type binding [2] [%] | percent of wild-type binding [3] [%] | percent of wild-type binding [4] [%] | percent of wild-type binding [5] [%] | binding result [6] | Binder
1 | ~50 | ~50 | ~50 | ~50 | ~50 |  | B1
2 |  |  |  |  |  | binds | mCD28 hIgG1 (Fc fusion, mouse, UniProt P31041 20-150, looked up, mouse CD28; also called soluble mCD28 hIgG1) NKILVKQSPLLVVDSNEVSLSCRYSYNLLAKEFRASLYKGVNSDVEVCVGNGNFTYQPQFRSNAEFNCDGDFDNETVTFRLWNLHVNHTDIYFCKIEFMYPPPYLDNERSNGTIIHIKEKHLCHTQSSPKL
3 |  |  |  |  |  | binds | mCD28 mIgG2a (Fc fusion, mouse, UniProt P31041 20-150, looked up, mouse CD28) NKILVKQSPLLVVDSNEVSLSCRYSYNLLAKEFRASLYKGVNSDVEVCVGNGNFTYQPQFRSNAEFNCDGDFDNETVTFRLWNLHVNHTDIYFCKIEFMYPPPYLDNERSNGTIIHIKEKHLCHTQSSPKL
